The values below come from publication PMC9191654.

The stoichiometry N is the number of molecules, sites or subunits per partner or assembly.

Residue numbers refer to the chain shown, from its start. In names and notes the source's numbering stands.

For experiment [1], the target named is anti-OX40 antibody 1A7 with the Fc hexamer variant E345R/E430G/S440Y (RGY). Briefly: SEC. (In gel filtration, larger molecules generally elute earlier.)
In experiment [2] the target is anti-OX40 antibody 1A7 with the κ3-11(49–61) light chain graft and the Fc hexamer variant E345R/E430G/S440Y (RGY). The experiment can be described thus: SEC.

B1: anti-OX40 antibody 1A7 with the Fc hexamer variant E345R/E430G/S440Y (RGY) (antibody, V domains shown)
VH: EVQLVQSGAEVKKPGASVKVSCKASGYTFTDSYMSWVRQAPGQGLEWIGDMYPDNGDSSYNQKFRERVTITRDTSTSTAYLELSSLRSEDTAVYYCVLAPRWYFSVWGQGTLVTVSS
VL: DIQMTQSPSSLSASVGDRVTITCRASQDISNYLNWYQQKPGKAPKLLIYYTSRLRSGVPSRFSGSGSGTDFTLTISSLQPEDFATYYCQQGHTLPPTFGQGTKVEIK
As to B1, the stoichiometry N in experiment [1] was determined as 6.

B2: anti-OX40 antibody 1A7 with the κ3-11(49–61) light chain graft and the Fc hexamer variant E345R/E430G/S440Y (RGY) (antibody, V domains shown)
VH: B1 VH
VL: B1 VL with Y50D, T51A, R53N, L54R, R55A, S56T, V58I, S60A
Consider B2, for which the stoichiometry N in experiment [2] amounted to 6.
